Data reported in article PMC11106242, “Homozygous EPRS1 missense variant causing hypomyelinating leukodystrophy-15 alters variant-distal mRNA m^6A site accessibility” (Nature Communications, 2024).

B1: Wild-type ProRS fragment of human EPRS1 (aa 930-1512) (domain or fragment, UniProt P07814 930-1512, looked up)
chain: IAVQELLQLKAQYKSLIGVEYKPVSATGAEDKDKKKKEKENKSEKQNKPQKQNDGQRKDPSKNQGGGLSSSGAGEGQGPKKQTRLGLEAKKEENLADWYSQVITKSEMIEYHDISGCYILRPWAYAIWEAIKDFFDAEIKKLGVENCYFPMFVSQSALEKEKTHVADFAPEVAWVTRSGKTELAEPIAIRPTSETVMYPAYAKWVQSHRDLPIKLNQWCNVVRWEFKHPQPFLRTREFLWQEGHSAFATMEEAAEEVLQILDLYAQVYEELLAIPVVKGRKTEKEKFAGGDYTTTIEAFISASGRAIQGGTSHHLGQNFSKMFEIVFEDPKIPGEKQFAYQNSWGLTTRTIGVMTMVHGDNMGLVLPPRVACVQVVIIPCGITNALSEEDKEALIAKCNDYRRRLLSVNIRVRADLRDNYSPGWKFNHWELKGVPIRLEVGPRDMKSCQFVAVRRDTGEKLTVAENEAETKLQAILEDIQVTLFTRASEDLKTHMVVANTMEDFQKILDSGKIVQIPFCGEIDCEDWIKKTTARDQDLEPGAPSMGAKSLCIPFKPLCELQPGAKCVCGKNPAKYYTLFGRSY
notes: ProRS fragment of human EPRS1 (glutamyl-prolyl-tRNA synthetase), aa 930-1512, subcloned in pTRC-HisB; also called recombinant WT ProRS; ProRS domain; source: E. coli BL21 Codon-plus (DE3)RIPL, purified (HisTrap HP column)
B2: P1482T mutant ProRS fragment of human EPRS1 (aa 930-1512) (domain or fragment, UniProt P07814 930-1512, looked up)
chain: IAVQELLQLKAQYKSLIGVEYKPVSATGAEDKDKKKKEKENKSEKQNKPQKQNDGQRKDPSKNQGGGLSSSGAGEGQGPKKQTRLGLEAKKEENLADWYSQVITKSEMIEYHDISGCYILRPWAYAIWEAIKDFFDAEIKKLGVENCYFPMFVSQSALEKEKTHVADFAPEVAWVTRSGKTELAEPIAIRPTSETVMYPAYAKWVQSHRDLPIKLNQWCNVVRWEFKHPQPFLRTREFLWQEGHSAFATMEEAAEEVLQILDLYAQVYEELLAIPVVKGRKTEKEKFAGGDYTTTIEAFISASGRAIQGGTSHHLGQNFSKMFEIVFEDPKIPGEKQFAYQNSWGLTTRTIGVMTMVHGDNMGLVLPPRVACVQVVIIPCGITNALSEEDKEALIAKCNDYRRRLLSVNIRVRADLRDNYSPGWKFNHWELKGVPIRLEVGPRDMKSCQFVAVRRDTGEKLTVAENEAETKLQAILEDIQVTLFTRASEDLKTHMVVANTMEDFQKILDSGKIVQIPFCGEIDCEDWIKKTTARDQDLEPGAPSMGAKSLCITFKPLCELQPGAKCVCGKNPAKYYTLFGRSY
notes: The substitution is a natural patient variant; also called Pro1482Thr ProRS; P1482T ProRS; source: E. coli BL21 Codon-plus (DE3)RIPL, purified (HisTrap HP column)

Target: the molecule itself
Test: SEC; Superdex 200 size-exclusion column pre-calibrated with Bio-Rad gel-filtration standards, in purification buffer (50 mM Tris-HCl pH 8.0, 100 mM NaCl, 10% glycerol); monomer to dimer

| Protein | stoichiometry N |
| --- | --- |
| B1 | 2 |
| B2 | 2 |
